From patent US20140314667A1 (Amgen, published 2014)
Substitutions are numbered along the chain they refer to. Several values for one entry are separate records, joined by “and”; a condition that tells them apart may be missing. Identical values can stand only once.

B1: Ab 131-DM1 conjugate (antibody, V domains shown)
VH: QVQLVESGGGVVQSGRSLRLSCAASGFTFRNYGMHWVRQAPGKGLEWVAVIWYDGSDKYYADSVRGRFTISRDNSKNTLYLQMNSLRAEDTAVYYCARDGYDILTGNPRDFDYWGQGTLVTVSS
VL: DTVMTQTPLSSHVTLGQPASISCRSSQSLVHSDGNTYLSWLQQRPGQPPRLLIYRISRRFSGVPDRFSGSGAGTDFTLEISRVEAEDVGVYYCMQSTHVPRTFGQGTKVEIK
modifications: DM1 linked through SMCC (MCC) to amine groups of the antibody, 3.0-3.5 DM1 molecules per antibody; sites not stated
B2: SC-EGFRvIII-XG1-211 (antibody, IgG1, V domains shown)
VH: QVQLVESGGGVVQPGRSLRLSCVASGFTLSSYGMHWVRQAPGKGLEWVAVTSYDGSKKDYADSAKGRFTISRDNSKNTLYLQMNSLRAEDTAVYYCVSEGYCSSSSCYKYYYYGMDVWGQGTTVTVSS
VL: DIVMTQSPLSLPVTPGEPASISCRSSQSLLYRNGNNYLDWYLQRPGQSPQLLIYLGSNRASGVPDRFSGSGSGTDFTLKISRVEAEDVGVYYCMQALQTPRTFGQGTKVEIK
notes: Recombinant IgG1 kappa; also called sc211; SC211
B3: SC-EGFRvIII-XG1-139 (antibody, IgG1, V domains shown)
VH: EVQVLESGGGLVQPGGSLRLSCAASGFTFSSYAMSWVRQAPGKGLEWVSAISGSGGSTNYADSVKGRFTISRDNSKNTLYLQMNSLRAEDTAVYYCAGSSGWSEYWGQGTLVTVSS
VL: DIQMTQSPSSLSASVGDRVTITCRASQGIRNNLAWYQQKPGKAPKRLIYAASNLQSGVPSRFTGSGSGTEFTLIVSSLQPEDFATYYCLQHHSYPLTSGGGTKVEIK
notes: Recombinant IgG1 kappa; also called sc139; SC139
B4: SC-EGFRvIII-XG1-250 (antibody, IgG1, V domains shown)
VH: B3 VH with V2G, V4L, L11W, G16E, M83V, A88V
VL: DIQMTQSPSSLSASVGDSVTITCRTSQGIRKNLGWYQQKPGKAPKRLIYAASSLQSGVPSRFSGSGSGTEFTLTISRLQPEDFATYYCLQHHSYPLTFGGGTRVEIR
notes: Recombinant IgG1 kappa; also called sc250; SC250
B5: antibody 095 (antibody, IgG1, V domains shown)
VH: QVQLQESGPFLVKPSQTLSLTCTVSGGSISSGGYYWSWIRQHPGKGLEWIGFIYYRGNTYYNPSLKSRVTISVDTSKNQFSLKLSSVTAADTAVYYCARDGYCSRTGCYGGWFDPWGQGTLVTVSP
VL: DIVMTQTPLSSPVTLGQPASISCRSSQSLIHTDGNIYLSWLQQRPGQPPRLLIYKISNRFSGVPDRFSGSGAGTDFTLKISRVEAEDVGVYYCMQGTQFPITFGQGTRLEIK
notes: Recombinant IgG1 kappa; also called sc95; SC95
B6: SC-EGFRvIII-XG2-150 (antibody, IgG1, V domains shown)
VH: QVQLQQSGPGLVKPSQTLSLTCAISGDSVSSYSSAWNWIRQSPSRGLEWLGRAYHRSRWYYEYAVSVKSRINITPDTSKNQFSLQLNSVTPEDTAVYYCARGSRFDYWGQGTLVTVSS
VL: B5 VL with I30V, T32R, I36T, V90I, Y92F, Q95H, G96T, I101W, L109V
notes: kappa light chain; also called sc150; SC150
B7: SC-EGFRvIII-XG2-170 (antibody, IgG1, V domains shown)
VH: QVQLQQSGPGLVKPSQTLSLTCAISGDSVSSNNAAWNWIRQSPARGLEWLGRTYYRSKWYNDYVVSVKSRITINPDTSKNQFSLQLNSVTPEDTAVYYCVRATAFDYWGQGTLVTVSS
VL: AIVLTQTPLSSPVTLGQPASISCRSSQSLVHRDGNTYLSWLQQRPGQPPRLLIYKISNRFSGVPDRFSGSGAGTDFTLKISRVEPDDVGVYYCMHTTQLPWTFGQGTKVEIK
notes: kappa light chain; also called sc170; SC170
B8: antibody 13.1.2 (antibody, V domains shown)
VH: QVQLVESGGGVVQPGRSLRLSCAASGFTFSSYGMHWVRQAPGKGLEWVAVIWYDGSNKYYVDSVKGRFTISRDNSKNTLYLQMNSLRAEDTAVYYCARDGWQQLAPFDYWGQGTLVTVSS
VL: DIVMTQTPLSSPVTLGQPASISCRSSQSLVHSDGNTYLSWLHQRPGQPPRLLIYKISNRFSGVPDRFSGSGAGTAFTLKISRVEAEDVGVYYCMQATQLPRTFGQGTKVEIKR
B9: anti-EGFRvIII antibody 131 (antibody, human IgG1, V domains shown)
VH: B1 VH
VL: B1 VL
notes: Recombinant human IgG1 kappa; also called sc131
B10: SC-EGFRvIII-XG1-318 (antibody, IgG1, V domains shown)
VH: B2 VH with A64V, S103D
VL: B2 VL
notes: Recombinant IgG1 kappa; also called mAb ID 141A10
B11: SC-EGFRvIII-XG1-333 (antibody, IgG1, V domains shown)
VH: B2 VH with P41L, A64V, S103D, S105T
VL: B2 VL
notes: Recombinant IgG1 kappa; also called mAb ID 132D8
B12: SC-EGFRvIII-XG1-123/124 (antibody, IgG1, V domains shown)
VH: B2 VH with V23A, T51M, K58E, A64V, K76E, S105R
VL: B2 VL with R44K, K79N, V90H
notes: Recombinant IgG1 kappa; also called mAb ID 129A7
B13: SC-EGFRvIII-XG1-342 (antibody, IgG1, V domains shown)
VH: B2 VH with A64V, S103D, S105T
VL: B2 VL
notes: Recombinant IgG1 kappa; also called mAb ID 124D4

biological target: T1, EGFRvIII, full length, expressed on cells (human, UniProt P00533 25-1210); test: cell-based or functional assay

Row | Binder | IC50 of cell growth inhibition (CellTiter-Glo, U251vIII cells)
1 | B1 | 0.068 nM DM1 equivalents and 3 ng/mL

biological target: T1, EGFRvIII, full length, expressed on …; test: cell-based or functional assay; remark: another data set of the same source

Row | Binder | % internalization [%]
2 | B2 | 21.6
3 | B3 | 80.8
4 | B4 | 16.7
5 | B5 | 72.4
6 | B6 | 20
7 | B7 | 20.1
8 | B8 | 82.5

biological target: T1, EGFRvIII, full length, expressed on …; test: FACS on NR6 M cells, antibody at 0.25 ug/ml, no glutathione
Method: XenoMax derived IgG1 recombinant antibodies were expressed, purified and quantitated as described previously. Antibodies were further assayed for their ability to internalize the EGFRvIII receptor in NR6 M cells. […] The cells were washed with cold 10% FCS in PBS and secondary antibody (SS Alexa antihuman IgG Fab) at 3 μg/ml Fab was added and incubated for 7 mins on ice. The cells were washed with cold 10% FCS in PBS once and then resuspended in cold media. Next, two sets of the triplicate were incubated at 37° C. and the remaining set was incubated at 4° C. for 1 hr. After that the cells incubated at 4° C. and one set of the cells incubated at 37° C. were treated with glutathione (as previously mentioned) for 1 hr on ice. Then the cells were washed and resuspended in 100 μl of cold 1% FCS in PBS and analyzed by FACS. The % internalization was calculated from the geometric mean obtained from the FACS analysis [(mean at 37° C. with glutathione−mean at 4° C. with glutathione)/(mean at 37° C. without glutathione−mean at 4 C with glutathione)].

Row | Binder | FACS Geometric mean, without glutathione 37 C [geometric mean]
9 | B2 | 20.8
10 | B3 | 22.6
11 | B4 | 24.1
12 | B5 | 22.6
13 | B6 | 20.3
14 | B7 | 20
15 | B8 | 22.1

biological target: T2, EGFRvIII-Rabbit Fc fusion protein (human; rabbit, UniProt P00533 25-645); test: ELISA, recombinant antibody supernatant on coated EGFRvIII-RbFc, 1.5 ug/ml
T2 construct: Made in 293F cells; also called EGFRvIII-RbFc; EGFRvIII-Rab Ig Fc fusion protein; not shown: Hinge-CH2-CH3 domain of rabbit IgG (721 bp fragment)
Method: The secretion ELISA tests were performed as follows. For Ab secretion, 2 μg/mL of Goat anti-human IgG H+L and for antigen binding, 1.5 μg/ml of EGFRvIII-Rab Ig Fc fusion protein was coated onto Costar Labcoat Universal Binding Polystyrene 96 well plates and held overnight at four degrees. The plates were washed five times with dH₂O. Recombinant antibodies were titrated 1:2 for 7 wells from the undiluted minilipofection supernatant. The plates were washed five times with dH₂O. A goat anti-human IgG Fc-specific HRP-conjugated antibody was added at a final concentration of 1 μg/mL for 1 hour at RT for the secretion plates and binding plates detected with 1 μg/ml Rb anti Hu Fc for 1 hour at room temperature. The plates were washed five times with dH₂O. The plates were developed with the addition of TMB for 30 minutes and the ELISA was stopped by the addition of 1 M phosphoric acid. Each ELISA plate was analyzed to determine the optical density of each well at 450 nm.

Row | Binder | Titer, antigen binding
16 | B9 | > 64 titer (1:x dilution of supernatant)
17 | B10 | 64 titer (1:x dilution of supernatant)
18 | B11 | > 64 titer (1:x dilution of supernatant)
19 | B12 | > 64 titer (1:x dilution of supernatant)
20 | B13 | > 64 titer (1:x dilution of supernatant)
21 | B2 | > 64 titer (1:x dilution of supernatant)
22 | B3 | > 64 titer (1:x dilution of supernatant)
23 | B4 | > 64 titer (1:x dilution of supernatant)
24 | B6 | > 64 titer (1:x dilution of supernatant)
25 | B7 | > 64 titer (1:x dilution of supernatant)
